The target of the test is 人CD47 (human CD47) (human) (UniProt Q08722). The test can be described thus: FACS competition on CHOK1 cells stably transfected with human CD47; competitor 1 μg/ml human SIRPα-His.
UniProt Q08722, sequence (Q08722 19-323): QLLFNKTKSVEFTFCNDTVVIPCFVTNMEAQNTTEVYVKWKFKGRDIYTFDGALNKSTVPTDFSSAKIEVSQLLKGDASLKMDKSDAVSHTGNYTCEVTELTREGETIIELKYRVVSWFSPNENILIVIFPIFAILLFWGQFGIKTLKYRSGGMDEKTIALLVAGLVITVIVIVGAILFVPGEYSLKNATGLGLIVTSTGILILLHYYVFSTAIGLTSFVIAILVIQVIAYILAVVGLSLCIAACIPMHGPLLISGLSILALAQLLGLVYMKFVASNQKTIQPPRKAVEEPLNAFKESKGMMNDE

B1: W3452-2.683.2-z27-IgG1L (antibody, V domains shown)
VH: EVQLVESGGGLVQPGRSLRLSCAASGFTFSTYGMAWVRQAPGKGLEWVSSISTSGGSTYYRDSVQGRFTISRDNAKSSLYLQMNSLRAEDTATYYCTTKGGRTYRLAYWGQGTLVTVSS
VL: SYELMQPPSVSVSPGQTARITCSGIELSNKYAHWYQQKPGQAPVEVMYKDSERPSGIPERFSGSRSGTTVTLTISGVQAEDEADYYCLSTNSDDDLPVFGGGTKLTVL
In the case of B1, the 阻断率 is over 90%.

B2: W3452-2.683.2-z27-IgG4PE,L (antibody, V domains shown)
VH: B1 VH
VL: B1 VL
The molecule B2 registered a 阻断率 of over 90%.

B3: W3452-1.164.16-z11-IgG1K (antibody, V domains shown)
VH: QVQLQESGPGLVKPSETLSLTCTVSGFSLTNYHVYWIRQPPGKGLEWIGVMWNHGDTSYNSPLKSRVTISVDTSKSQFSLKLSSVTAADTAVYYCARGGYVPDYWGQGTMVTVSS
VL: DIVMTQSPLSLPVTPGEPASISCRSSQSLVHSNAKTYLHWYLQKPGQSPQLLIYRVSNRFSGVPDRFSGSGSGTDFTLKISRVEAEDVGVYYCLQTTHFPYTFGQGTKLEIK
Turning to B3, the 阻断率 is over 90%.
